In a protein production outcome set (Wang et al. 2014):

Experiment: label from the status in PepcDB records

Sequence	protein production
MTSVRGIAPLPSKKSSDRQKRLAMSTFERYLTLWVALCIVVGIGLGHLMPGAFQVIGAAEIAKVNLPVAALIWLMIIPMLVRIDFAALGRVREHWRGIGVTLFINWAVKPFSMAALAWLFVGYLFRPYLPADQINSYIAGLIILAAAPCTAMVFVWSNLTKGEPHFTLSQVALNDTIMVFAFAPIVGLLLGLSAITVPWDTLVLSVVLYIVVPVIIAQGLRRWALASGGEAQLQRLLGIFQPLSLVALLATLVLLFGFQGEQIIRQPLVIALLAVPILIQVYFNAGLAYLLNRLSGEQHCVAGPSALIGASNFFELAVAAAISLFGFESGAALATVVGVLIEVPVMLTVVAIVNRSKRWYEADQRAPVARTPG	failed
MEVFKVFATLSLVDMISGPLGSVSEGMELLGGKVSALGSRMGKLAVAMAPVALAAGVLLGTLGLAAREAIAFESAMADVAKVVNFESAGELKAMSATILDMSTRIPMAADGLAAIVAAAAQSGVARQDLTDFAEQAAKMGVAFDLTGDQAGKMMADWRAGMNLTLPRVYALADATNHLSNNMNATAPALGEVIQRVGAVGMAAGLSETQVAALGAAFLSAGASPEIASTALKKFTSTLVRGSALSKDAQAAFGALGFSVTQMAKDMQTDAQGTIFKVLQALADKPKELQMSLLTEMFGEEALGAIAPLLANMGNLSQAFDLVGDSAAYAGSMQGEFEARSRTTENALLLLGNKAKALMIVIGSYFLPVIGAVADALGGFVDMLRAAAQTAGGEFALKLVAGVSAAIVAATALSGALWLLSAAGPMLAAALAPLKAALLGLSWPMWAIIAVVGALYLAYKTNFAGIGDTLRRWWQTVSLVVRGVMAVFSTLTDGVGEIRGELATEIRAAGLEGLVASVGSVVYRVQAFFRGLWDGVSGVGDRLAVVFGPTLDRLGAVFGQLFTVLGGLGEAFFGVSAASDVSGWERFGNVIGSVVCGAVEILATAFTALLAPIEMAAGMLQFVLDLFNGVSLFDAGAKLLGTFVDGIMSMVSAPFEAAKKALDMVGKLLPHSDADEGPLSTLTASGMATLSTMGEGMTAAAPGLHDTLETALGDAVAPQIEAPATADVQPGRKTARAAQGRGVTITIGTLNLPGVTNAQDFVAQLQDFVAAYDGVPEGGLV	failed
MKKLFMSAVALLFAGALWAQENPLWMRHCAISPDGTTIAFTYKGDIFTVPVSGGKATQITTNPAFDTTPIWSPDSKQIAFASDRMGSMDVFIVSKDGGEPRRLTTFSGGETPVAFTDAGHILFTADIMPSTEDAGFPSNGQFQQIYQIPVSGGRPVMFSSMPMECISINKEGTILYQDKKGYEDYWRKHQKSPIARDIWMLRPGQTPRYEKQTTFIGEDREPVWAPDGKSFYYLSEENGTFNVYQRTPGSDTSKQVTHHKQHPVRFLSMASNGNLCYGFDGEIYTLAPGGKPQKVSVKILSDRNDKDLIRQIKTSGATEMAVSPDGKEVAFILRGDVYVTSVEYKTTKQVTNTPCQERGIDFAPDGRTLVYASERGGLWQLYTSTIVRKDEKQFTYATELKEERLTNSDIASFNPKYSPDGKEIAFLENRTAIRVINLKTKKVRTVMDAQYQYSYSDGDQWFEWSPDSKWILSEFIGIGGWNNKDIVLLNADGKGEMHNLTESGYSDGNAKWVLGGKAMVWFSDRAGYRSHGSWGAQYDAYIMFFDVDAYDRFRMNKEDLALLEEAEKAEKAEKEKAEKKKKENKKDDKKKDAKEKNKKDGDEEKKEEVKPLKFDLDNRFDRIVRLTVNSSFMGDAVLTPKGDKLYYLAAFESGYDLWEHDLKENSTKILLKGVGGGSLLPDKKGENIFMCTGGGMKKIEIAGSKTTPIAFESFFDYQPGGERAYIFDHVWQQVDDKFYVKDLQGVDWPLYKKSYEKFLPYINNNYDFAELLSEMLGELNASHTGARYSGAGGALATAALGVFYDDTYNGDGLKIKEIIEQGPFTLKKTDVKPGCIIEKVDGTLIKKGEDYFPLFEGKVGRKVLLSVYDPATKKRFEETVKAISYGAQRELLYKRWVERNRKKVEELSGGRLGYVHIKGMDSQSFRKMYSELLGRYRNKEAVVVDVRHNGGGWLHDDVVTLLSGKEYQRFVPRGQYIGSDPFNKWLKPSCMLVCEDNYSNAHGTPYVYKTLGIGKLVGTPVAGTMTAVWWERQIDPSLVFGIPQVGCMDMQGNYLENHTLEPDVLIYNEPAASLKGEDAQLKAAVDCLLKELPKK	failed
MQTLIIVAHPELARSNTQPFFKAAIENFSNVTWHPLVADFNVEQEQSLLLQNDRIILEFPLYWYSAPALLKQWMDTVMTTKFATGHQYALEGKELGIVVSTGDNGNAFQAGAAEKFTISELMRPFEAFANKTKMMYLPILAVHQFLYLEPDAQQRLLVAYQQYATNVGAGHFKDLEHHHHHH	not failed
VHVEDALTYLDQVKIRFGSDPATYNGFLEIMKEFKSQSIDTPGVIRRVSQLFHEHPDLIVGFNAFLP	not failed
MIDPLASPGSAPLIVIAGPTASGKSALALRVARRFNGVVINADSMQVYRDLRILSARPSVEDEAAAPHALYGVLDGAEVCSVGRWLALADGAVAAARAAGRLPILCGGTGLYLKAALEGLASVPEVAPEVRAEARELLAALGPAALHAKLAELDRAMAERLRPSDAQRIARAYEVVRGTGRSLMDWWSDPVATPALPGRPLLLVIDPPRAAQRAACDARLLAMVAAGALDELALLLARRLDPALPVMRAVGVPELARTLRGEVGLAEAVERAQGATRRYAKRQGTWIRTQLRPDRVLSESLVTQLSESQLTDIDNFLYAFLLTGAS	failed
MGWLFLLLAVASEAFSHVALKATDGLSHLIPNVIVITGHLGAFYFLSQAMKTLPVGIAHASWAGLAIIAVTLISSAFYHQHLDNKIWLGIGFISIGIAIINLSSTPHVH	failed
KSEAGAGKKVQVEFVSANPTGPLHIGHGRGAAIGDTICRLLAAIGWDVTREFYYNDAGQQIANLALSVQARCLGVEPGGPLWPTDGYQGEYIKDVARSYLNRETVDAGDQHVTAAGDPHDVEAIRRFAVAYLRREQDQDLRAFDVGFDVYFLESSLYAEGRVDDVVQRIIAKGHAYEQDGALWLRTTEFGDDKDRVMRKSDGSYTYFVPDVAYHLNKWERGFIRVVNEQGADHHSTITRVRAGLQALDAGIPKGWPEYVLHQMVTVMRGGEEVKISKRAGSYVTLRDLVDEVGRDATRFFFLMRKPDSQLVFDIDLAKQQTLENPVYYVQYAHARICSIFENAADKGVVPPT	failed
MTWCSLSVISCTRFYSRQRTAMLNSLKQEKFLLLALLAAVAAYPLEHLLLGSGQGIALGAGLVLIGFIVMASMRVAHHAELLAEKVGDPYGTMILTLAAVLVEVVILAIMMSNEASPTLVRDTIYSAVMLDINGILGLAALMGGIKHGEQPYNDDSARTYSVMILTAMGVSMVVPEFIPEADWKVYSAFTIGAMVVLYTLFLRMQVGPHSYFFSYSYPEKRRNKEAQEQPHAINLAWSIGILVFGVVVIGALAEVMSKTLDLGLEGTGAPPVITAILVAAISAAPEILTALRAALANRMQSVVNVALGASLSTVILTVPVMEAMALYTGQPFQMAMTPVQTVMVFITLIVSAINLNDGETNAIEGMTHFVLFATFIMLSLLGL	failed
MATATATSERFELAKHCSSRNWSKAIRVLDSLLAKESSILDICNRAFCYNQLELHKHVIKDCDKALLLEPFAIQAFILKGRALLALGRKQEAVLVLEQGYKSALQQTADVKQLLELEELLKDARREIDGILKSHATESPQETPAYHSEKSDEKSDKLDNHESGASSNGNSHESSSELGEQSKIVSFSKVASKASKQSDGNSDLCNGSVYKEKENGKCGSQINGYYESCKPCNGSDLHDNLAESSDRFGELSINGNKISIKSSKMSHKAEARCGISDESRKNKKYTIARISGTHSISVDFRLSRGIAQVNEGNYTKAISIFDKVLKEEPTYPEALIGRGTAYAFQRELESAIADFTKAIQSNPAASEAWKRRGQARAALGEYVEAVEDLTKALVFEPNSPDVLHERGIVNFKSKDFTAAVKDLSICLKQEKDNKSAYTYLGLAFASLGEYKKAEEAHLKSIQLDSNYLEAWLHLAQFYQELADHCKALECIEQVLQVDNRVWKAYHLRGLVFHGLGEHRKAIQELSIGLSIENTIECLYLRGSCYHAVGEYRDAVKDYDATVDVELDAVEKFVLQCLAFYQKELALYTASKVSSEFLCFDIDGDIDPMFKEYWCKRLHPKNVCEKVYRQPPLRESLKKGKLKKQDLAITKQKANILRFADLIGKRIQYDCPGFLPNKRQHRMAGLAVIEIAQKVSKAWRIEWRNSTKGTTKNGKKNRRRERTNILSQNRGGAGCSSSSFSETSTGYASLEDRSSGRSILSWQDVYSPAVRWRQISEPCDPVVWVNKLSEEFNSGFGSHTPMVLGQAKVVRYFPNYERTLTLAKSIIKDKLSVRSKKDKVIDLSKDEKIEKIMRAETCDELHNIVGEDFWVATWCDSTGSEGWVC	failed
MSLNSEAKSRIACDIDFDRDGRQAGYARAPLSRNNSGWGTVEIPITVVKNGSGPTVLLTGGVHGDEYEGQIAISDLARRLRPEEVQGRVIMLPAVNMPAIQSDTRLSPVDGRDINRCFPGDPRGTFSQMLAHFLDSVILPMADISVDMHTAGHSYDSTPSTNMHYLADPALRARTLAAAEAFGAPHNVVFGGVDEGSTFTSCVERRGIVSLGTELGGWGRVNIEGVRIGKRGILNVLKHMGVIEGTPETAQRGGAAGTRHMMVREADAYVMAPRTGLFEPTHYVGEEVRTGETAGWIHFVEDVDTAPLELLYRRDGIVWFGAGPGRVTRGDAVAVVMEDYNDTWPQEGHHHHHH	not failed
MSLTGTDFHVGIVGLGSMGMGAARSCLRAGLSTWGADLNPQACANLLAEGACGAAASAREFAGVVDALVILVVNAAQVRQVLFGEDGVAHLMKPGSAVMVSSTISSADAQEIAAALTALNLNMLDAPVSGGAVKAAQGEMTVMASGSEAAFTRLKPVLDAVASNVYRISDTPGAGSTVKIIHQLLAGVHIAAAAEAMALAARAGIPLDVMYDVVTHAAGNSWMFENRMQHVVDGDYTPRSAVDIFVKDLGLVADTAKALRFPLPLASTALNMFTSASNAGYGKEDDSAVIKIFSGEGHHHHHH	not failed
MPGSPRGLCTRSRKSTMSTHGTIGVLGAGEVGQAVADKAVRHGHEVLIGNSRGPRTLEALVGRLGPKARAVTAEEAVQPELVFLSVPFFAVPELTGLTTWAGKIVVDTTNQFAAANPWRGRYDVGDLTGSEWVARHLPGARLVKALNTLFATFIAADPRHAEGRQVAFYAGDDADAKTAVAGLLDEFGFAALDLGGLRDGGRLMQLDGALSAKHLLLQDVG	failed
MTHVQTMLETYPKDLGDIDRAKLIECIKACFECAQTCTACADACLSEDMVAELTKCIRTNLDCADICVATGNMLSRHTGYDANVTRAVLEACRTVCKACADECEQHASMHEHCRACAEACRRCEKACADLLGSLG	failed
MPKTKLTSPPFKILKCTECDACINVPSILQSNEQAECPRCHHLLASGTRWSLHRCAMIALSILILMPFSLNYPLLSLHLLGIKIDASIWDGIWKMAVGGYEYTAFMIFICAVVMPITFALLVIMLWLAKIFQIKPRSVLLFLGYIKAWVMFDVYLVALGVTIFKVREYATLEINIYLIPFIFTALLTTLLFIKLNLSALWQEFYPECTSVYTKQAVELCPACHYTFTQKSIHYDHQQKICCPRCQSPLNTSDKLKLQATWATLIAGIIMLFPANLLPISGIYLTGALSEDTLISGVISFVKSGSYFVAFVVFFASIFVPISKIFIMLYLLACVHFKWQHSIKWQMRLLHLVHFVGRWSMLDLFVLALMMSLVTRGEIINFTVGPGAFYFGAAVFCTMLSTSQFDSKLIWKIYDREK	failed
MSSPGGGTRFALVAGTTETAGRAGISAAGADPELMSVTPAADAELVTYGTPVRTDVTPVSPSGCPTPALVTRAAREVLGFDVTVVDGGLAEKTGAPTVSVGARPGKDIAEQDPVSTAHGAFAAARQFGQSLPADELYLGETIPGGTTTALGVLRALGEDGMVSSSLPENPTAQKSEVVAEGLQASSLEPGDAANEPKRAVRRMGDPVLATLAGLTAGAVESDTAVTLAGGSQCVAVAALVRHGGYEGPLGLATTSYVADDESADVRASVDRLDLDLTVTDPGFDRSDHVAMERFVAGEAKEGVGMGGALALAD	not failed
